For assay [1], the target named is recombinant soluble urokinase plasminogen activator receptor (suPAR, aa 1-279) (UniProt Q03405). The assay is described as follows: direct binding assay (format and antigen form not stated).
Assay [2] has the same target. Kind of assay: ELISA on suPAR, bound Biotin-ATN-658 detected with HRP-streptavidin. A general note: An ELISA detects its analyte on a solid surface through an enzyme-linked reagent.

Experimental findings from patent publication US20090180952A1 are described below.

As a reminder, the Kd is a measure of binding affinity in units of concentration. What is called EC50 (read off the curve) is the concentration needed to bring the measured effect to its halfway point.

With mAb ATN-658 (antibody), the Kd in assay [1] came to 1 nM. For the same substance, in assay [2], the EC50 (read off the curve) was 0.2 nM.
